The record followed here is patent publication US20220194996A1.

The labels stand for the following.
B1: Pro(CsLNK)-6C fusion protein, produced in L. lactis (protein)
chain: EYVDEKERQGEIYPFGDEEEKDEGGESFTYEKSEVDKTDLFKFIEGGEGDDVYKVDGSKVLLDDDTISRVSKKHTARDGEYGEYGEAVEDGENVIKIIRSVLQSGALPSVGVDELDKIDLSYETTESGDTAVSEDSYDKYASNNTNKENMPNDPNRNVDENANANSAVKNNNNEEEKKVIHGCNFSSNVSSKHTFTDSLDISLVDDSAHISCNVHLSEPKYNHLVGLNCPGDIIPDCFFQVYQPESEELEPSNIVYLDSQINIGDIEYYEDAEGDDKIKLFGIVGSIPKTTSFTCICKKDKKSAYMTVTIDSA
B2: Pro(Flex2)-6C fusion protein, produced in L. lactis (protein)
chain: EYVDEKERQGEIYPFGDEEEKDEGGESFTYEKSEVDKTDLFKFIEGGEGDDVYKVDGSKVLLDDDTISRVSKKHTARDGEYGEYGEAVEDGENVIKIIRSVLQSGALPSVGVDELDKIDLSYETTESGDTAVSEDSYDKYASNNTNKEGGGGSGGGGSGGGGSEKKVIHGCNFSSNVSSKHTFTDSLDISLVDDSAHISCNVHLSEPKYNHLVGLNCPGDIIPDCFFQVYQPESEELEPSNIVYLDSQINIGDIEYYEDAEGDDKIKLFGIVGSIPKTTSFTCICKKDKKSAYMTVTIDSA
B3: Pro(Sol)-6C fusion protein, produced in L. lactis (protein)
chain: EYVDEKERQGEIYPFGDEEEKDEGGESFTYEKSEVDKTDLFKFIEGGEGDDVYKVDGSKVLLDDDTISRVSKKHTARDGEYGEYGEAVEDGENVIKIIRSVLQSGALPSVGVDELDKIDLSYETTESGDTAVSEDSYDKYASNNTNKEKESGSVSSEQLAQFRSLDEKKVIHGCNFSSNVSSKHTFTDSLDISLVDDSAHISCNVHLSEPKYNHLVGLNCPGDIIPDCFFQVYQPESEELEPSNIVYLDSQINIGDIEYYEDAEGDDKIKLFGIVGSIPKTTSFTCICKKDKKSAYMTVTIDSA

In the assay the target is rat mAb 45.1 (against Pfs48/45 conformational epitope I).
B1 showed a % of folding of 75%.

Consider B2, for which the % of folding turned out to be 100%.

Molecule B3 returned a % of folding of 90%.
